Experimental data taken from patent CN112830969A (JIANGSU NOVOMAB BIOPHARMACEUTICALS INC, dated 2021).
Each block holds one binder with its values, some of them ahead of it.

Tests used:
人Claudin18.2 (过表达细胞) [1] = target: T1, 人Claudin18.2 (过表达细胞) (human, UniProt P56856-2 1-261); assay: cell-based or functional assay
[2] = target: T2, 人Claudin18.2-His重组蛋白(Kactus,Cat.CLD-HE1821) (human, UniProt P56856-2 1-261, limits assumed); assay: ELISA, human Claudin18.2-His coated
T2 construct: Bought protein; also called Claudin18.2重组蛋白; not shown: His tag

人Claudin18.1 (过表达细胞) = target: T3, 人Claudin18.1 (过表达细胞) (human, UniProt P56856 1-261); assay: cell ELISA on 293 cells transfected with human Claudin18.1
T3 construct: whole, on cells; also called CLDN18.1; Caludin18.1

人Claudin18.2 (过表达细胞) [3] = target: T1, 人Claudin18.2 (过表达细胞); assay: cell ELISA on 293 cells transfected with human Claudin18.2

ADCC活性 EC50 (靶细胞的裂解百分比, LDH; NUGC4-Claudin18.2靶细胞, NK92效应细胞) (人Claudin18.2 (过表达细胞) [1]): 0.0126 nM
EC50 [2]: 0.49 µg/mL
binding result (人Claudin18.1 (过表达细胞)): no binding
EC50 (人Claudin18.2 (过表达细胞) [3]): 0.028 µg/mL
B1: 人源化抗体HA1LA1 (antibody, human IgG1, kappa, V domains shown)
VH: QVQLVESGGGVVQPGRSLRLSCAASGFTFSTYGVHWVRQAPGKGLEWVAVIWNGGNTDYNAAFISRFTISRDNSKNTLYLQMNSLRAEDTAVYYCARNRRGGGFGMDYWGQGTLVTVSS
VL: DIVMTQSPDSLAVSLGERATINCKSSQSLLNGGIQKNYLTWYQQKPGQPPKLLIYWASTRESGVPDRFSGSGSGTDFTLTISSLQAEDVAVYYCQNAYTYPFTFGQGTKLEIKR
notes: also called Claudin18.2单抗对照

ADCC活性 EC50 (靶细胞的裂解百分比, LDH; NUGC4-Claudin18.2靶细胞, NK92效应细胞) (人Claudin18.2 (过表达细胞) [1]): 0.0575 nM
binding result (人Claudin18.1 (过表达细胞)): no binding
EC50 (人Claudin18.2 (过表达细胞) [3]): 0.119 µg/mL
B2: 对照抗体(来自专利CN20148000912) (antibody, V domains shown)
VH: QIQLVQSGPELKKPGETVKISCKASGYTFTNYGMNWVKQAPGKGLKWMGWINTNTGEPTYAEEFKGRFAFSLETSASTAYLQINNLKNEDTATYFCARLGFGNAMDYWGQGTSVTVSS
VL: DIVMTQSPSSLTVTAGEKVTMSCKSSQSLLNSGNQKNYLTWYQQKPGQPPKLLIYWASTRESGVPDRFTGSGSGTDFTLTISSVQAEDLAVYYCQNDYSYPLTFGAGTKLELK
